Laboratory results as given in article PMC7591262.

Target: Wtf4^antidote-mCherry (S. kambucha)
Test: FRET or BRET

Wtf4^poison-GFP (natural protein)
FRET (acceptor photobleaching): 40%
